According to patent publication US6551840B2, “Method of screening TGF-β-inhibiting substances” (Chugai Seiyaku Kabushiki Kaisha, priority 1997, dated 2003):

Experiments:
Mv1Lu cell [1] = conditions: Yamaguchi K. et al., (1995) Science 270, 2008-2011; cited from earlier work
Mv1Lu cell [2] = assay: PAI-1 ELISA in culture supernatant of Mv1Lu cells with or without TGF-β1; assay type: cell-based, mink; conditions: Mv1Lu cells with forced expression; 10 ng/ml TGF-β1, 24 hours; control cells about 16-fold
Excerpt: Accordingly, TAK1DN was subjected to forced expression in the Mv1Lu cell to investigate the effects of TGF-β stimulation on PAI-1 expression. The TAK1DN expression vector used was the above-mentioned TAK1DN, and the TAK1 polypeptide mutant TAK1-K63W expression vector was constructed by inserting a gene (Yamaguchi K. et al., (1995) Science 270, 2008-2011) encoding the TAK1 polypeptide mutant TAK1-K63W in which the lysine residue at position 63 has been replaced with the tryptophan residue at the EcoRI and NotI restriction enzyme site of pCOS1 to give pTAK1K63W.
The Mv1Lu cells into which pTAK1Dn had been introduced (Mv/DN2), the cells into which pTAK1K63W had been introduced (Mv/KN7), and the control cells into which pCOS1 containing no inserted genes (Mv/NEO) had been introduced were each incubated in a low-serum medium (MEM medium containing 0.2% FBS; manufactured by GIBCO-BRL) with or without 10 ng/ml of TGF-β1 for 24 hours. The amount of PAI-1 in the culture supernatant was determined using the PAI-1 Quantative ELISA (manufactured by CALBIOCHEM).

B1: TAK1-K63W: catalytically inactive TAK1 polypeptide mutant in which the lysine residue at position 63 has been replaced with the tryptophan residue (protein, UniProt O43318 1-606, looked up, variant K63W)
Mitogen-activated protein …: MSTASAASSSSSSSAGEMIEAPSQVLNFEEIDYKEIEVEEVVGRGAFGVVCKAKWRAKDVAIWQIESESERKAFIVELRQLSRVNHPNIVKLYGACLNPVCLVMEYAEGGSLYNVLHGAEPLPYYTAAHAMSWCLQCSQGVAYLHSMQPKALIHRDLKPPNLLLVAGGTVLKICDFGTACDIQTHMTNNKGSAAWMAPEVFEGSNYSEKCDVFSWGIILWEVITRRKPFDEIGGPAFRIMWAVHNGTRPPLIKNLPKPIESLMTRCWSKDPSQRPSMEEIVKIMTHLMRYFPGADEPLQYPCQYSDEGQSNSATSTGSFMDIASTNTSNKSDTNMEQVPATNDTIKRLESKLLKNQAKQQSESGRLSLGASRGSSVESLPPTSEGKRMSADMSEIEARIAATTAYSKPKRGHRKTASFGNILDVPEIVISGNGQPRRRSIQDLTVTGTEPGQVSSRSSSPSVRMITTSGPTSEKPTRSHPWTPDDSTDTNGSDNSIPMAYLTLDHQLQPLAPCPNSKESMAVFEQHCKMAQEYMKVQTEIALLLQRKQELVAELDQDEKDQQNTSRLVQEHKKLLDENKSLSTYYQQCKKQLEVIRSQQQKRQGTS
Mv1Lu cell [1]
  effect of forced expression on PAI-1 expression stimulated by TGF-β: PAI-1 expression is inhibited
Mv1Lu cell [2]
  increase in PAI-1 in the culture supernatant by TGF-β1 addition: about 6.5 fold
